How the values were obtained:
[1] = target: H3N2 A/Moscow/10/1999 HA on infected MDCK-SIAT1 cells (Influenza A virus H3N2 A/Moscow/10/1999, UniProt I6SI59, strain); experiment: flow cytometry on cells; settings: one partner purified
[2] = target: T1, H3N2 A/Hong Kong/1/1968 HA protein (Influenza A virus H3N2 A/Hong …, UniProt Q91MA7, strain); experiment: ELISA; settings: both partners purified
T1 construct: source: bought: SinoBiological

[3] = target: H14N5 A/mallard/Astrakhan/263/1982 HA protein (Influenza A virus H14N5 …, UniProt P26136, strain); experiment: ELISA; settings: both partners purified

B1: 240-14 IgA 2F02 IgG (antibody, V domains shown)
VH: EVQLLESGGGLVQPGGSLRLSCAASGFTFSTYAMSWVRQAPGKGLEWVSTISGSGGSTYDAESVKGRFTISRDNSKNTLYLQMNSLRAEDTAVYYCAKEGGDFWSGYYANWFDPWGQGTLVTVSS
VL: QSALTQPRSVSGSPGQSVTISCTGTRSDVGGYNYVSWYQQHPGKAPKVIIYDVKKRPSGVPDRFSGSKSGNTASLTISGLQAEDEADYYCSAFAGSHTLFGGGTKVTVL
notes: source: Expi293F, transfected, purified (CaptureSelect CH1-XL beads); copies: 2 + 2
binding result [1]: binds
binding result [2]: binds

B2: AG2-G02 IgG (antibody, V domains shown)
VH: VQLVQSGAEMKKPGASVKVSCKASGYTFSAYYIHWVRQAPGQGLEWMGRINTDSGGTNFAQQFEGRVTMTRDTSISTAYMELSSLRSDDTAVYYCARGYDFWLGSYRAGGWFDPWGQGTLVTVSS
VL: not shown
notes: copies: 2 + 2
binding result [1]: binds
binding result [3]: no binding (tested: 10 μg mL^−1)

Source: paper PMC12658140 (Nature Communications, 2025)
